Experiment: soluble on expression in E. coli; label from the status in PepcDB or PDB records

For “AHHHHHHGSLPKNYDPNEIEPKWQKYWLEEKIYKYKLEPDKPSYAIDTPPPFTSGTLHLGHVLSHTWIDIIARYKRMRGYNVLFPQGFDNHGLPTELKVEKEFGISKDQPEEFLKKCIEWTWQAIEKMRAQFIRIGYSADWDLEYHTMDDWYKAAVQKSLLDFYKKGLIYREEHPVYWCPRCRTSLAKAEVGYVEEEGYLYYIKLPLADGSGYIPIATTRPELMPACVAVFVHPDDERYKHLVGKKVKLPIYEREVPILADEDVDPNFGTGAVYNCTYGDEQDIVWQKRYNLPVIIAINEDGTMNENAGPYAGLKIEEARKKIAEDLEKMGLLYKKEKITHRVLRHTERSSCMAPIELLPKKQWFIKVREFTDDIVEVAKKINWYPEDMFLRLKDWAESMDWDWVISRQRVFGTPIPFWICKNGHIIPAREEDLPVDPRFDKPPVEKCPVCGAEIEPVTDVLDCWVDSSITPLIITKWHEAIKGDEEAKKWFEHNFPTALRPQGTDIIRTWAFYTIFRTYMLTGEKPWNDIVINGMVAGPDGRKMSKSYGNVVSPEEVIPKYGADALRLWTALAPPGEDHPFKWEIVDYNFRFLQKLWNIYRFAERHIKDFDYEKYKHIELEPLDRWILSRLHRIIKFATEELEKYRFNLITRELMTFIWHEVADDYIEMIKHRLYGEDEESKLKAKVALYELLYNIMLLLAPFVPHITEELYHHIFKEKIGEKSVHLLQWPEYREDRIDEEAEKIGELAREIVSAMRKYKNSHGMPLNAKLKHVAIYATDSYEMLKVIEKDIAGTMNIERLEIVKGEPQLEEKVVEIKPIYKRIGPRYGKLVPKIVKHLQENAEEIGRRIKEEGKVEFEVEGQKVVLEKEDIEIKKAVFSEGEEVETAVVRDATILFF”, which “soluble on expression in E. coli” value is on record?
Its value is “not soluble”.

With “GPLGSCSSPQVEIPTTYSPEKIAQLQVYVNPIAVARDGMEKRLQGLIADQNWVDTQTYIHGPLGQLRRDMLGLASSLLPKDQDKAKTLAKEVFGHLERLDAAAKDRNGSQAKIQYQEALADFDSFLNLLPQAS” as the sequence, how does the “soluble on expression in E. coli” value read?
Its value is “soluble”.

Which “soluble on expression in E. coli” value does the source give for “MSLHYYLGIDCGGTFIKAAIFDQNGTLQSIARRNIPIISEKPGYAERDMDELWNLCAQVIQKTIRQSSILPQQIKAIGISAQGKGAFFLDKDNKPLGRAILSSDQRAYEIVQCWQKENILQKFYPITLQTLWMGHPVSILRWIKENEPSRYEQIHTILMSHDYLRFCLTEKLYCEETNISESNFYNMREGKYDIQLAKLFGITECIDKLPPIIKSNKIAGYVTSRAAEQSGLVEGIPVVGGLFDVVSTALCADLKDDQHLNVVLGTWSVVSGVTHYIDDNQTIPFVYGKYPEKNKFIIHEASPTSAGNLEWFVNQFNLPNYDDINHEIAKLKPASSSVLFAPFLYGSNAKLGMQAGFYGIQSHHTQIHLLQAIYEGVIFSLMSHLERMQVRFPNASTLRVTGGPAKSEVWMQMLADISGMRLEIPNIEETGCLGAALMAMQAESAVEISQILNIDRKIFLPDKNQYSKYQHKYHRYLKFIEALEGHHHHHH” here?
The value was “soluble”.

Which “soluble on expression in E. coli” value does the source give for “MSLQDIKDITLRQFGTGVSNLNEVAQKVKEDLGFTLTMTALDSDAVTQRAATQPDSFDIADIEYWICKKVWPTGNLQAMDTSKIKNYDKIVGIFRSGKLTPESTIAQGTAPHTVGFTSGPGGTDFVQEESGWMTLIPTIYNADTLGIRPDLIGRPIESWTELLNPEFKGKASILDISSIGIMDAAMVCEAMGEITYGDKGNMTREEIDRTMAIFTEAKKAGQFRAFWKTFDESVNLMASGEVVIQSMWSPAITAVKSRGIPCVYQPLREGYRSWGGGIGLSARLDGLALEAAYEYINWYLSGWVGGFLMRQGYYSAVPETSKEFMSENEWGYWFEGKPATDTITNPQGQAMAQAGEVRDGGSFEERMGRVACWNSVMDENQYMVRKWNEFIAAEGHHHHHH” here?
The value was “not soluble”.

With “MGSDKIHHHHHHMKRENLHQPFEISFSEFDESMLKEHDHTFFELVYILSGTGIQWINNNKFSYHGGHLFMITPGDSHSFEIHSTTKFIDIKFNDIYIHSAVFGTENIKRLEFILQHANHQPGCILRNRTDKLLVKPMIEAIIREYVNRNLYSKEIITQLINTIIIVVARNIAMFLPEQVNECSEEKSLGILQYIQTYIYQSEKIKTKAISQHFGISENYLGRYFKKHTNETMQQYILNYKLKLVENRLLHSEMRISEIVAELGFTDESHLNKLFKKYRGCSPTNFRKNNAV” as the sequence, how does the “soluble on expression in E. coli” value read?
Its value is “not soluble”.

With “MWPAPRRVNLRSLGIAWPSPGGLDTLASNFPSEGCQNMNLYSLLSARAAGGKPVRVGLIGAGKFGSMVLAQAQRIAGFHMVAVADLNVGKARESFDRVGWPKERYDATSCADALKSGKTYVTDDVNELFACGEIECIIEATGHPLAGARHALGAIDHNKHVVMVNVEADVMVGPILAEKARAKGLIYSMAYGDQPALICELVDWARATGFEVVSAGKGMNFEPRYRYSTPDTVWSYFGWTDEEVAKGDFNPKMYNSFTDGTKAAIEMAAVANGTGLDCPDDGLAFPPAGLHDLARVFRPAADGGRMSRSGLVDIAASQEPDGREVFNNIRYGVFVTFKAHNDYARACFKQYGLLTDPSGWYASMWRPFHIIGLETSISVLSAVLRNEPTGCSKEFRGDAVATAKKDMQPGEMLDGEGGYAVWANAIPATRSLDIKALPIGLAHNVKLKRPIKKDQIVSFDDVELVSDLDVVKLRQDMEHQFRPQKDAAA” as the sequence, how does the “soluble on expression in E. coli” value read?
Its value is “not soluble”.

With “SNRHLCKECFKKDIERRAKKVLGKDIIRNNVKIGIGISGGKDSLVMAYILKELFKHIPNAKLICFFVDEGIKGFRNIAEKYVKEFCKEYNLDLKIIKFEDEIGYTLDEIVKNDYLSKLNIGKPCSFCGVVRRYLLNKHALKEGCDYLAIGHNLDDFCQTILMNYVEGNIKNIIQFGKEFEGGGFVKRIKPLKLIPEEEVKLYAEINNIKYQREPC” as the sequence, how does the “soluble on expression in E. coli” value read?
The value was “not soluble”.

Which “soluble on expression in E. coli” value does the source give for “MQQVPDKIYVSRSRLKSNRRRLINETDVERLFSRNGFQIIHPQELTIKEQINLFRHAQVIAGPLGSAMYNCVFQTKPTKKLLLTYEKFIKMSDLLINTSTNGLLYYFAGTEHKQNKSPSNTEWSINLNQLEHHHHHH” here?
The value was “not soluble”.

For “MDSLKCQVDNTVASHNVTIDKSSQDDNHIDNRRYYINIGNTKDSEEVARLQKLILTQNEAESKRTMELLALLNLKNNPEEQKKASAVGPAVDVAQNLRHLSASAGGTRRLRSCHGTYLRAYDKGLKVDMKTGAPGTWENWWVEDRKGKVVFKAIHSPGIFLSAQGNNQLTLDYHVNASEFWTPKKNDNGSWSFQSANGTWLSAHKDGRACLQPHRQAWEEFWLEWW”, which “soluble on expression in E. coli” value is on record?
Its value is “not soluble”.

For “MGSDKIHHHHHHMSEIEAQLPVIHFADAKTFETWIAEQGSDCKGLWVKFAKKASGIASITPREALDVALCYGWIDGQRIGSDSDFYLNKYTPRRARSRWSQVNCARATELIAEGRMTPRGLAEVERARTDGRWDAAAPPPSKATVPDDLHDALAQNAAAKMLFDELDSRNRYAILFRIHDAKKSETRAARIEKYVGMLARGETPYPRRKAR”, which “soluble on expression in E. coli” value is on record?
Its value is “not soluble”.
